The supplement of paper PMC7125110
± gives the standard error. This sample holds only a part of the variants without activity.

B1: glmS ribozyme (parent)
chain: AUAAAAGCGCCAGAACUACAGAAAUGUAGUUGACGAGGAGGAGGUUUAUCGAAUUUUCGGCGGAUGCCUCCAAA

Legend:
Details in all cases: with glucosamine-6-phosphate
[1] = variants of: B1; assay: self-cleavage kobs at 40 uM GlcN6P; higher = faster cleavage; RNA array
Summary of the method: (§1)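 A hybridised Cy3 probe tracked barcoded ribozyme variants, transcribed in situ by E. coli RNA polymerase on sequenced MiSeq chips, at 37 °C. The variants received 40 μM to 10 mM glucosamine-6-phosphate in HEPES/KCl/Mg(OAc)2 buffer. kobs came from decay fits and kcat and KM from weighted Michaelis–Menten fits.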

[2] = variants of: B1; assay: self-cleavage kobs at 640 uM GlcN6P; higher = faster cleavage; RNA array
Summary of the method: as §1

[3] = variants of: B1; assay: self-cleavage kobs at 2500 uM GlcN6P; higher = faster cleavage; RNA array
Summary of the method: as §1

[4] = variants of: B1; assay: self-cleavage kobs at 10000 uM GlcN6P; higher = faster cleavage; RNA array
Summary of the method: as §1

[5] = variants of: B1; assay: self-cleavage kobs at 160 uM GlcN6P; higher = faster cleavage; RNA array
Summary of the method: as §1

Row | Variant | self-cleavage kobs at 40 uM GlcN6P [1] | self-cleavage kobs at 640 uM GlcN6P [2] | self-cleavage kobs at 2500 uM GlcN6P [3] | self-cleavage kobs at 10000 uM GlcN6P [4] | self-cleavage kobs at 160 uM GlcN6P [5]
1 | G38C A39C G43U U57G C71U | < 1e-05 s⁻¹ | < 1e-05 s⁻¹ | < 1e-05 s⁻¹ | < 1e-05 s⁻¹ | –
2 | A12U U45C | 0.000226 ± 3.6e-05 s⁻¹ | – | 0.00428 ± 0.0016 s⁻¹ | 0.00628 ± 0.001 s⁻¹ | –
3 | A39C A48C U55C C58U | < 1e-05 s⁻¹ | < 1e-05 s⁻¹ | < 1e-05 s⁻¹ | – | –
4 | A36C A39G G60U | < 1e-05 s⁻¹ | < 1e-05 s⁻¹ | < 1e-05 s⁻¹ | – | –
5 | A36G U55C C67U | < 1e-05 s⁻¹ | < 1e-05 s⁻¹ | < 1e-05 s⁻¹ | – | –
6 | U30C A52U | < 1e-05 s⁻¹ | < 1e-05 s⁻¹ | – | – | –
7 | A33U C50A C68G | 4.36e-05 ± 2e-05 s⁻¹ | – | – | – | –
8 | A6C G44U G51A | < 1e-05 s⁻¹ | – | – | < 1e-05 s⁻¹ | –
9 | G44C U65G | < 1e-05 s⁻¹ | < 1e-05 s⁻¹ | – | – | < 1e-05 s⁻¹
10 | A48C G63A C70A | < 1e-05 s⁻¹ | – | – | – | –
11 | U30G G59C | < 1e-05 s⁻¹ | < 1e-05 s⁻¹ | – | < 1e-05 s⁻¹ | –
12 | C8U A12C A15G C67U | < 1e-05 s⁻¹ | – | – | < 1e-05 s⁻¹ | –
13 | C10U C11U U56G G62U | < 1e-05 s⁻¹ | – | – | < 1e-05 s⁻¹ | –
14 | U45G U46G C61A | < 1e-05 s⁻¹ | – | – | < 1e-05 s⁻¹ | –
15 | U45A G51A | < 1e-05 s⁻¹ | – | – | – | < 1e-05 s⁻¹
16 | A6G U31C C68A | < 1e-05 s⁻¹ | – | – | – | –
17 | G43C U47A | < 1e-05 s⁻¹ | < 1e-05 s⁻¹ | < 1e-05 s⁻¹ | – | –
18 | A6G C16G | < 1e-05 s⁻¹ | < 1e-05 s⁻¹ | – | 3.38e-05 ± 8.1e-06 s⁻¹ | < 1e-05 s⁻¹
19 | A14U C70U | 0.000285 ± 2.5e-05 s⁻¹ | 0.00104 ± 0.00018 s⁻¹ | 0.00724 ± 0.0015 s⁻¹ | – | 0.000441 ± 6.1e-05 s⁻¹
20 | U49A G62U | < 1e-05 s⁻¹ | – | – | < 1e-05 s⁻¹ | –
21 | G7C G51A U56A C67G C68A | 0.000619 ± 0.0002 s⁻¹ | – | – | 7.59e-05 ± 1.5e-05 s⁻¹ | –
22 | C11U U65A | < 1e-05 s⁻¹ | 0.000121 ± 3.6e-05 s⁻¹ | 9.22e-05 ± 2e-05 s⁻¹ | – | –
23 | C50U A64C C67A | < 1e-05 s⁻¹ | < 1e-05 s⁻¹ | < 1e-05 s⁻¹ | – | –
24 | A33U G43U | < 1e-05 s⁻¹ | – | < 1e-05 s⁻¹ | < 1e-05 s⁻¹ | < 1e-05 s⁻¹
25 | A14C A64U | < 1e-05 s⁻¹ | < 1e-05 s⁻¹ | – | – | < 1e-05 s⁻¹
26 | G38U U46G G60C | < 1e-05 s⁻¹ | < 1e-05 s⁻¹ | < 1e-05 s⁻¹ | – | < 1e-05 s⁻¹

Row | Variant | self-cleavage kobs at 40 uM GlcN6P [1] | self-cleavage kobs at 640 uM GlcN6P [2] | self-cleavage kobs at 2500 uM GlcN6P [3] | self-cleavage kobs at 10000 uM GlcN6P [4] | self-cleavage kobs at 160 uM GlcN6P [5]
27 | G9C G29U | < 1e-05 s⁻¹ | < 1e-05 s⁻¹ | – | < 1e-05 s⁻¹ | < 1e-05 s⁻¹
28 | C8U C16A | < 1e-05 s⁻¹ | < 1e-05 s⁻¹ | < 1e-05 s⁻¹ | < 1e-05 s⁻¹ | –
29 | G35U U54C U56G A64U C70U | < 1e-05 s⁻¹ | – | – | < 1e-05 s⁻¹ | –
30 | A33G G40C C70U | < 1e-05 s⁻¹ | – | – | < 1e-05 s⁻¹ | –
31 | A6C A36U G37C G60U | < 1e-05 s⁻¹ | – | – | – | –
32 | G43U G59A G60C | < 1e-05 s⁻¹ | – | < 1e-05 s⁻¹ | < 1e-05 s⁻¹ | –
33 | A36C U54C A64U C67G | < 1e-05 s⁻¹ | – | – | – | –
34 | G35C G59A | < 1e-05 s⁻¹ | < 1e-05 s⁻¹ | < 1e-05 s⁻¹ | – | < 1e-05 s⁻¹
35 | G9A C10A G32A | < 1e-05 s⁻¹ | – | – | – | –
36 | A36G C61A | < 1e-05 s⁻¹ | < 1e-05 s⁻¹ | – | < 1e-05 s⁻¹ | –
37 | G29U C50G G60U C67A | 9.35e-05 ± 1.9e-05 s⁻¹ | – | – | 0.000133 ± 3e-05 s⁻¹ | –
38 | C11G C16A G38C | < 1e-05 s⁻¹ | – | – | < 1e-05 s⁻¹ | < 1e-05 s⁻¹
39 | A15C U46A C58U | < 1e-05 s⁻¹ | – | – | – | –
40 | C10G A48U | < 1e-05 s⁻¹ | < 1e-05 s⁻¹ | < 1e-05 s⁻¹ | < 1e-05 s⁻¹ | < 1e-05 s⁻¹
41 | U31G A39C G44C | < 1e-05 s⁻¹ | – | – | – | –
42 | A6G C50A C70U | < 1e-05 s⁻¹ | – | – | – | –
43 | G35U U65G | < 1e-05 s⁻¹ | < 1e-05 s⁻¹ | < 1e-05 s⁻¹ | < 1e-05 s⁻¹ | < 1e-05 s⁻¹
44 | G13C G29U G32A | 7.61e-05 ± 2.4e-05 s⁻¹ | – | – | 0.00214 ± 0.00069 s⁻¹ | –
45 | G9U C70U | < 1e-05 s⁻¹ | < 1e-05 s⁻¹ | – | < 1e-05 s⁻¹ | < 1e-05 s⁻¹
46 | G29A C34U U47G A48G C67G | 0.000265 ± 0.0001 s⁻¹ | – | – | 7.2e-05 ± 3.2e-05 s⁻¹ | –
47 | U47A A52C | < 1e-05 s⁻¹ | – | – | – | –
48 | G37C U65G U69G | < 1e-05 s⁻¹ | – | – | < 1e-05 s⁻¹ | –
49 | A6C G29U G32A U45A G60A | < 1e-05 s⁻¹ | – | < 1e-05 s⁻¹ | – | –
50 | A6C A42C | < 1e-05 s⁻¹ | < 1e-05 s⁻¹ | – | < 1e-05 s⁻¹ | < 1e-05 s⁻¹
51 | G7C G35U U54G | < 1e-05 s⁻¹ | – | < 1e-05 s⁻¹ | < 1e-05 s⁻¹ | –
